These results are taken from patent publication US20130011412A1 (Genentech, published 2013).

T1: recombinant human lymphotoxin-α homotrimer (human LTα3) (human, UniProt P01374 35-205)
T1 construct: Coated on plates in the ELISAs; also called rhLTα; lymphotoxin-α3 trimer
T1 sequence (looked up): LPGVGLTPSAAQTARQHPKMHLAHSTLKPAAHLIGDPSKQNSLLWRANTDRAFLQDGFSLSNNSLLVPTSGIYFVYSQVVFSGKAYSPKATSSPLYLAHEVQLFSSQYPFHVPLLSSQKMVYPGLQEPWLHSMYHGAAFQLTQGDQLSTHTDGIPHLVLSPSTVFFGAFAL

B1: 3F12 version 13 (3F12.v5 with Y31A, CDR-L1) (antibody, IgG1, V domains shown)
VH: EVQLVESGGGLVQPGGSLRLSCAASGYTFSSYWIEWVRQAPGKGLEWVGEISPGSGSTNYNEEFKGRATFSADNSKNTAYLQMNSLRAEDTAVYYCADGYHGYWGQGTLVTVSS
VL: DIQMTQSPSSLSASVGDRVTITCKSSQSLLASTNQKNFLAWYQQKPGKAPKLLIYWASTRDSGVPSRFSGSGSGTDFTLTISSLQPEDFATYYCQQYYSYPRTFGQGTKVEIK
notes: Alanine-scan variant of 3F12.v5; human kappa / IgG1
B2: 3F12 version 9 (3F12.v5 with Y99A, CDR-H3) (antibody, IgG1, V domains shown)
VH: EVQLVESGGGLVQPGGSLRLSCAASGYTFSSYWIEWVRQAPGKGLEWVGEISPGSGSTNYNEEFKGRATFSADNSKNTAYLQMNSLRAEDTAVYYCADGAHGYWGQGTLVTVSS
VL: DIQMTQSPSSLSASVGDRVTITCKSSQSLLYSTNQKNFLAWYQQKPGKAPKLLIYWASTRDSGVPSRFSGSGSGTDFTLTISSLQPEDFATYYCQQYYSYPRTFGQGTKVEIK
notes: as for B1
B3: 3F12 version 12 (3F12.v5 with Y102A, CDR-H3) (antibody, IgG1, V domains shown)
VH: EVQLVESGGGLVQPGGSLRLSCAASGYTFSSYWIEWVRQAPGKGLEWVGEISPGSGSTNYNEEFKGRATFSADNSKNTAYLQMNSLRAEDTAVYYCADGYHGAWGQGTLVTVSS
VL: DIQMTQSPSSLSASVGDRVTITCKSSQSLLYSTNQKNFLAWYQQKPGKAPKLLIYWASTRDSGVPSRFSGSGSGTDFTLTISSLQPEDFATYYCQQYYSYPRTFGQGTKVEIK
notes: Alanine-scan variant of 3F12.v5; human kappa / IgG1; also called 3F12 clone 12
B4: 3F12 version 18 (3F12.v5 with Q89A, CDR-L3) (antibody, IgG1, V domains shown)
VH: EVQLVESGGGLVQPGGSLRLSCAASGYTFSSYWIEWVRQAPGKGLEWVGEISPGSGSTNYNEEFKGRATFSADNSKNTAYLQMNSLRAEDTAVYYCADGYHGYWGQGTLVTVSS
VL: DIQMTQSPSSLSASVGDRVTITCKSSQSLLYSTNQKNFLAWYQQKPGKAPKLLIYWASTRDSGVPSRFSGSGSGTDFTLTISSLQPEDFATYYCAQYYSYPRTFGQGTKVEIK
notes: as for B1
B5: 3F12 version 16 (3F12.v5 with K36A, CDR-L1) (antibody, IgG1, V domains shown)
VH: EVQLVESGGGLVQPGGSLRLSCAASGYTFSSYWIEWVRQAPGKGLEWVGEISPGSGSTNYNEEFKGRATFSADNSKNTAYLQMNSLRAEDTAVYYCADGYHGYWGQGTLVTVSS
VL: DIQMTQSPSSLSASVGDRVTITCKSSQSLLYSTNQANFLAWYQQKPGKAPKLLIYWASTRDSGVPSRFSGSGSGTDFTLTISSLQPEDFATYYCQQYYSYPRTFGQGTKVEIK
notes: as for B1
B6: 3F12 version 25 (3F12.v5 with G55A, CDR-H2) (antibody, IgG1, V domains shown)
VH: EVQLVESGGGLVQPGGSLRLSCAASGYTFSSYWIEWVRQAPGKGLEWVGEISPGSASTNYNEEFKGRATFSADNSKNTAYLQMNSLRAEDTAVYYCADGYHGYWGQGTLVTVSS
VL: DIQMTQSPSSLSASVGDRVTITCKSSQSLLYSTNQKNFLAWYQQKPGKAPKLLIYWASTRDSGVPSRFSGSGSGTDFTLTISSLQPEDFATYYCQQYYSYPRTFGQGTKVEIK
notes: as for B1
B7: 3F12 version 22 (3F12.v5 with Y94A, CDR-L3) (antibody, IgG1, V domains shown)
VH: EVQLVESGGGLVQPGGSLRLSCAASGYTFSSYWIEWVRQAPGKGLEWVGEISPGSGSTNYNEEFKGRATFSADNSKNTAYLQMNSLRAEDTAVYYCADGYHGYWGQGTLVTVSS
VL: DIQMTQSPSSLSASVGDRVTITCKSSQSLLYSTNQKNFLAWYQQKPGKAPKLLIYWASTRDSGVPSRFSGSGSGTDFTLTISSLQPEDFATYYCQQYYSAPRTFGQGTKVEIK
notes: as for B1
B8: 3F12 version 19 (3F12.v5 with Y91A, CDR-L3) (antibody, IgG1, V domains shown)
VH: EVQLVESGGGLVQPGGSLRLSCAASGYTFSSYWIEWVRQAPGKGLEWVGEISPGSGSTNYNEEFKGRATFSADNSKNTAYLQMNSLRAEDTAVYYCADGYHGYWGQGTLVTVSS
VL: DIQMTQSPSSLSASVGDRVTITCKSSQSLLYSTNQKNFLAWYQQKPGKAPKLLIYWASTRDSGVPSRFSGSGSGTDFTLTISSLQPEDFATYYCQQAYSYPRTFGQGTKVEIK
notes: as for B1
B9: 3F12 version 14 of Table 2 (3F12.v5 with T33A, CDR-L1) (antibody, IgG1, V domains shown)
VH: EVQLVESGGGLVQPGGSLRLSCAASGYTFSSYWIEWVRQAPGKGLEWVGEISPGSGSTNYNEEFKGRATFSADNSKNTAYLQMNSLRAEDTAVYYCADGYHGYWGQGTLVTVSS
VL: DIQMTQSPSSLSASVGDRVTITCKSSQSLLYSANQKNFLAWYQQKPGKAPKLLIYWASTRDSGVPSRFSGSGSGTDFTLTISSLQPEDFATYYCQQYYSYPRTFGQGTKVEIK
notes: Alanine-scan variant of 3F12.v5; human kappa / IgG1; also called 3F12 clone 14
B10: 3F12 version 24 (3F12.v5 with G53A, CDR-H2) (antibody, IgG1, V domains shown)
VH: EVQLVESGGGLVQPGGSLRLSCAASGYTFSSYWIEWVRQAPGKGLEWVGEISPASGSTNYNEEFKGRATFSADNSKNTAYLQMNSLRAEDTAVYYCADGYHGYWGQGTLVTVSS
VL: DIQMTQSPSSLSASVGDRVTITCKSSQSLLYSTNQKNFLAWYQQKPGKAPKLLIYWASTRDSGVPSRFSGSGSGTDFTLTISSLQPEDFATYYCQQYYSYPRTFGQGTKVEIK
notes: as for B1
B11: 3F12 version 20 (3F12.v5 with Y92A, CDR-L3) (antibody, IgG1, V domains shown)
VH: EVQLVESGGGLVQPGGSLRLSCAASGYTFSSYWIEWVRQAPGKGLEWVGEISPGSGSTNYNEEFKGRATFSADNSKNTAYLQMNSLRAEDTAVYYCADGYHGYWGQGTLVTVSS
VL: DIQMTQSPSSLSASVGDRVTITCKSSQSLLYSTNQKNFLAWYQQKPGKAPKLLIYWASTRDSGVPSRFSGSGSGTDFTLTISSLQPEDFATYYCQQYASYPRTFGQGTKVEIK
notes: Alanine-scan variant of 3F12.v5; human kappa / IgG1; also called 3F12 clone 20
B12: 3F12 version 23 (3F12.v5 with R96A, CDR-L3) (antibody, IgG1, V domains shown)
VH: EVQLVESGGGLVQPGGSLRLSCAASGYTFSSYWIEWVRQAPGKGLEWVGEISPGSGSTNYNEEFKGRATFSADNSKNTAYLQMNSLRAEDTAVYYCADGYHGYWGQGTLVTVSS
VL: DIQMTQSPSSLSASVGDRVTITCKSSQSLLYSTNQKNFLAWYQQKPGKAPKLLIYWASTRDSGVPSRFSGSGSGTDFTLTISSLQPEDFATYYCQQYYSYPATFGQGTKVEIK
notes: as for B1
B13: 3F12 version 15 (3F12.v5 with N34A, CDR-L1) (antibody, IgG1, V domains shown)
VH: EVQLVESGGGLVQPGGSLRLSCAASGYTFSSYWIEWVRQAPGKGLEWVGEISPGSGSTNYNEEFKGRATFSADNSKNTAYLQMNSLRAEDTAVYYCADGYHGYWGQGTLVTVSS
VL: DIQMTQSPSSLSASVGDRVTITCKSSQSLLYSTAQKNFLAWYQQKPGKAPKLLIYWASTRDSGVPSRFSGSGSGTDFTLTISSLQPEDFATYYCQQYYSYPRTFGQGTKVEIK
notes: Alanine-scan variant of 3F12.v5; human kappa / IgG1; also called 3F12 clone 15
B14: 3F12 version 21 (3F12.v5 with S93A, CDR-L3) (antibody, IgG1, V domains shown)
VH: EVQLVESGGGLVQPGGSLRLSCAASGYTFSSYWIEWVRQAPGKGLEWVGEISPGSGSTNYNEEFKGRATFSADNSKNTAYLQMNSLRAEDTAVYYCADGYHGYWGQGTLVTVSS
VL: DIQMTQSPSSLSASVGDRVTITCKSSQSLLYSTNQKNFLAWYQQKPGKAPKLLIYWASTRDSGVPSRFSGSGSGTDFTLTISSLQPEDFATYYCQQYYAYPRTFGQGTKVEIK
notes: Alanine-scan variant of 3F12.v5; human kappa / IgG1; also called 3F12 clone 21
B15: 3F12 version 17 (3F12.v5 with F38A, CDR-L1) (antibody, IgG1, V domains shown)
VH: EVQLVESGGGLVQPGGSLRLSCAASGYTFSSYWIEWVRQAPGKGLEWVGEISPGSGSTNYNEEFKGRATFSADNSKNTAYLQMNSLRAEDTAVYYCADGYHGYWGQGTLVTVSS
VL: DIQMTQSPSSLSASVGDRVTITCKSSQSLLYSTNQKNALAWYQQKPGKAPKLLIYWASTRDSGVPSRFSGSGSGTDFTLTISSLQPEDFATYYCQQYYSYPRTFGQGTKVEIK
notes: Alanine-scan variant of 3F12.v5; human kappa / IgG1; also called 3F12 clone 17

The target in this experiment is T1, recombinant human lymphotoxin-α …. Briefly: plate-based ELISA against LTα. On the technique in general: In an ELISA, binding on a coated surface is turned into a signal by an enzyme label.
For B1, the “relative binding (EC50 of the variant / EC50 of version 5)” value was 3.4 ratio. In the case of B2 it was 10 ratio; in that of B3, 0.81 ratio; in that of B4, 4.2 ratio. In the case of B5 it was 3.7 ratio; in that of B6, 1.2 ratio; in that of B7, 14.3 ratio.

As for B8, the “relative binding (EC50 of the variant / EC50 of version 5)” value was 2.3 ratio. The value for B9 was 0.72 ratio.

Take B10: the “relative binding (EC50 of the variant / EC50 of version 5)” value came to 34.1 ratio. The value for B11 was 0.71 ratio; that for B12 was 18.2 ratio. With B13, the “relative binding (EC50 of the variant / EC50 of version 5)” value turned out to be 0.49 ratio. The value for B14 was 0.82 ratio; that for B15 was 0.32 ratio.
